Assay results: US20160145328A1 (published 2016)
Substitutions are numbered along the chain they refer to. Names may count otherwise. Like-named read-outs stand apart in the source and are kept apart here.

Assays:
Assay in all cases: Heat/Cool phage ELISA: phage-displayed VH, 80 C 10 min then 4 C 10 min, captured on coated protein A; signal as % of untreated sample
protein A [1] = molecular target: T1, protein A (UniProt P38507 37-477)
T1 construct: also called Protein A superantigen
Method: (§1) The aggregation-resistance of clones was analyzed by measuring retention of signal after heat incubation in a phage ELISA format (McCafferty et al., 1990; Jespers et al., 2004). Wells of a Nunc Maxisorp Immuno-plate were coated overnight with protein A at a concentration of about 5 μg/ml in phosphate-buffered saline (PBS). The plate was washed once with PBS and blocked with about 4% (w/v) milk powder diluted in PBS (MPBS). Single colonies were picked from agar plates and grown overnight in 2×TY medium (containing about 16 g/L tryptone; about 10 g/L yeast extract; about 5 g/L NaCl, pH 7.0) supplemented with about 15 μg/ml tetracycline shaking at about 30° C. Cells were removed by centrifugation and phages were biotinylated directly in the culture supernatant by adding biotin-PEO₄-N-hydroxysuccinimide (Pierce; about 50 μM final concentration). For heat selection, supernatant was first incubated at about 80° C. for about 10 min and then at about 4° C. for about 10 min. Supernatant was added to the blocked ELISA wells. After three washes with PBS, bound phage particles were detected using an Extravidin-HRP conjugate (Sigma) and 3,3′,5,5′-tetramethylbenzidine (TMB) substrate. Absorbance was calculated by subtracting measurements at 450 and 650 nm.
To identify additional residues in CDR1 that confer aggregation-resistance on VH, surface-exposed residues of DP47 between positions 26 to 35 (numbering according to the Kabat numbering system) were substituted for aspartic acid (D) or glutamic acid (E). Framework residues at positions 39 and 40 were also substituted for aspartic acid (D) or glutamic acid (E). […] Correctly folded VH were captured by protein A ELISA and the absorbance signal of the treated sample was calculated as a percentage of the untreated sample.

protein A [2] = molecular target: T1, protein A; remark: listed apart in the source
Method: as §1
Single amino acid changes in the CDR1 region of the DP47 VH domain, and combinations thereof, were constructed and tested for aggregation-resistance, as detailed above (see the Materials and Methods section). […] Correctly folded VH were captured by protein A ELISA and the absorbance signal of the treated sample was calculated as a percentage of the untreated sample.

protein A [3] = molecular target: T1, protein A; remark: listed apart in the source
Method: as §1
To identify residues in CDR2 that confer aggregation-resistance on a VH containing protein aspartic acid (D) was substituted for surface-exposed residues within the putative CDR2 of DP47 VH with aspartic acid (positions 50, 52, 52a, 53, 54).

protein A [4] = molecular target: T1, protein A; remark: listed apart in the source
Method: as §1
VH domains were produced comprising negatively charged amino acids at positions 28 and/or 35 in CDR1 of DP47 and at least one other position, as set out in Table 7. Aggregation-resistance of the VH domains was assessed using the “Heat/Cool” assay as described in Example 1.2.

B1: DP47 VH A33D (other, name in Kabat numbering)
VH: QVQLLESGGGLVQPGGSLRLSCAASGFTFSSYDMSWVRQAPGKGLEWVSAISGSGGSTYYADSVKGRFTISRDNSKNTLYLQMNSLRAEDTAVYYCAKSYGAFDYWGQGTLVTVSS
Retained binding to protein A (%) (protein A [1]): 10% | Retained binding to protein A (protein A [2]): 26%

B2: DP47 VH T28R (other, name in Kabat numbering)
VH: B1 VH with T28R, D33A
Retained binding to protein A (protein A [2]): 2%

B3: DP47 VH S30D (other, name in Kabat numbering)
VH: B1 VH with S30D, D33A
Retained binding to protein A (%) (protein A [1]): 21.8%

B4: DP47 VH G54D (other, name in Kabat numbering)
VH: B1 VH with D33A, G55D
Retained binding to protein A (%) (protein A [3]): 1.3%

B5: DP47 VH S35D + A33D (other, name in Kabat numbering)
VH: B1 VH with S35D
Retained binding to protein A (%) (protein A [4]): 40.3%

B6: DP47 VH A40D (other, name in Kabat numbering)
VH: B1 VH with D33A, A40D
Retained binding to protein A (%) (protein A [1]): 2.8%

B7: DP47 VH T28D + A33D (other, name in Kabat numbering)
VH: B1 VH with T28D
Retained binding to protein A (%) (protein A [4]): 62%

B8: DP47 VH G26D (other, name in Kabat numbering)
VH: B1 VH with G26D, D33A
Retained binding to protein A (%) (protein A [1]): 6.1%

B9: DP47 VH S30E (other, name in Kabat numbering)
VH: B1 VH with S30E, D33A
Retained binding to protein A (%) (protein A [1]): 2.1%

B10: DP47 VH T28D + Y32D (other, name in Kabat numbering)
VH: B1 VH with T28D, Y32D, D33A
Retained binding to protein A (%) (protein A [4]): 64.7%

B11: DP47 VH S53D (other, name in Kabat numbering)
VH: B1 VH with D33A, S54D
Retained binding to protein A (%) (protein A [3]): 3.8%

B12: DP47 VH A50D (other, name in Kabat numbering)
VH: B1 VH with D33A, A50D
Retained binding to protein A (%) (protein A [3]): 2.9%

B13: DP47 VH Q39E (other, name in Kabat numbering)
VH: B1 VH with D33A, Q39E
Retained binding to protein A (%) (protein A [1]): 2.5%

B14: DP47 VH T28E (other, name in Kabat numbering)
VH: B1 VH with T28E, D33A
Retained binding to protein A (%) (protein A [1]): 6.5%

B15: DP47 VH S35D + S31D (other, name in Kabat numbering)
VH: B1 VH with S31D, D33A, S35D
Retained binding to protein A (%) (protein A [4]): 48.3%

B16: DP47 VH S35E (other, name in Kabat numbering)
VH: B1 VH with D33A, S35E
Retained binding to protein A (%) (protein A [1]): 4.5%

B17: DP47 VH T28D + S35D (other, name in Kabat numbering)
VH: B1 VH with T28D, D33A, S35D
Retained binding to protein A (%) (protein A [4]): 45.8%

B18: DP47 VH T28D (other, name in Kabat numbering)
VH: B1 VH with T28D, D33A
Retained binding to protein A (%) (protein A [1]): 25.1%

B19: DP47 VH Y32D (other, name in Kabat numbering)
VH: B1 VH with Y32D, D33A
Retained binding to protein A (%) (protein A [1]): 41.8%

B20: DP47 VH S35D + S30D (other, name in Kabat numbering)
VH: B1 VH with S30D, D33A, S35D
Retained binding to protein A (%) (protein A [4]): 43.5%

B21: DP47 VH S35G (other, name in Kabat numbering)
VH: B1 VH with D33A, S35G
Retained binding to protein A (protein A [2]): 4%

B22: DP47 VH Y32E (other, name in Kabat numbering)
VH: B1 VH with Y32E, D33A
Retained binding to protein A (%) (protein A [1]): 24.8% | Retained binding to protein A (protein A [2]): 41%

B23: DP47 VH A40E (other, name in Kabat numbering)
VH: B1 VH with D33A, A40E
Retained binding to protein A (%) (protein A [1]): 1.9%

B24: DP47 VH A33E (other, name in Kabat numbering)
VH: B1 VH with D33E
Retained binding to protein A (%) (protein A [1]): 2%

B25: DP47 VH S31E (other, name in Kabat numbering)
VH: B1 VH with S31E, D33A
Retained binding to protein A (%) (protein A [1]): 6.1%

B26: DP47 VH S52D (other, name in Kabat numbering)
VH: B1 VH with D33A, S52D
Retained binding to protein A (%) (protein A [3]): 3.9%

B27: DP47 VH G26E (other, name in Kabat numbering)
VH: B1 VH with G26E, D33A
Retained binding to protein A (%) (protein A [1]): 1.8%

B28: DP47 VH T28D + S30D (other, name in Kabat numbering)
VH: B1 VH with T28D, S30D, D33A
Retained binding to protein A (%) (protein A [4]): 39.4%

B29: DP47 VH Q39D (other, name in Kabat numbering)
VH: B1 VH with D33A, Q39D
Retained binding to protein A (%) (protein A [1]): 3.7%

B30: DP47 VH S35D + Y32D (other, name in Kabat numbering)
VH: B1 VH with Y32D, D33A, S35D
Retained binding to protein A (%) (protein A [4]): 61%

B31: DP47 VH S31D (other, name in Kabat numbering)
VH: B1 VH with S31D, D33A
Retained binding to protein A (%) (protein A [1]): 21.3% | Retained binding to protein A (protein A [2]): 31%

B32: DP47 VH S35D (other, name in Kabat numbering)
VH: B1 VH with D33A, S35D
Retained binding to protein A (%) (protein A [1]): 12.8%

B33: DP47 VH T28D + S31D (other, name in Kabat numbering)
VH: B1 VH with T28D, S31D, D33A
Retained binding to protein A (%) (protein A [4]): 44.8%
